Laboratory results from US20230183322A1 (PEKING UNIVERSITY, published 2023).

Tests used:
[1] = target: S protein of the novel coronavirus SARS-CoV-2 (SARS-CoV-2, UniProt P0DTC2 14-1273); assay: cell-based or functional assay
[2] = target: biotin-labeled SARS-COV-2 RBD domain (SARS-CoV-2, UniProt P0DTC2 319-541); assay: SPR, Biacore T200, biotin-RBD on SA chip, antibody as analyte

Binder	IC50 for neutralizing SARS-CoV-2 pseudovirus (Huh-7 cells, luciferase) [1] [µg/mL]	Kd [2] [nM]
ABU-322 (antibody, V domains shown) VH: EVQLVESGGGLIQPGGSLRLSCAASGVIVSRNYMNWVRQAPGKGLEWVSVIYSGGSTFYADSVKGRFTISRDNSKNTLYLQMNSLRAEDTAVYYCARELRGAFDIWGQGTMVTVSS VL: not shown	< 0.1	
ABU-382 (antibody, V domains shown) VH: EVQLVESGGGLIQPGGSLRLSCAASGITVSSNYMSWVRQAPGKGLEWVSVIYSGGSTFYSDSVKGRFTISRDNSKNTLYLQMNSLRAEDTAVYYCARERGGRFDYWGQGTLVTVSS VL: not shown	< 0.1	< 10
ABU-341 (antibody, V domains shown) VH: QVQLQESGPGLVKPSQTLSLTCTVSAGSISSDTYYWSWIRQPAGKGLEWIGRIYTTGSTIYNPSLNSRVLISADTSNNQFSLKLTSVTASDTAVYYCAAHYYSRTDAFHIWGQGTMVTVSS VL: DIQMTQSPSSLSASVGDRVTITCRASQSIAKFLNWYQKKPGKAPNLLISTASSFQSGVPSRFSGSGSGTDYTLTISGLQPEDFATYYCQQSYSSPYTFGQGTNLEIK	< 0.1	< 10
ABU-308 (antibody, V domains shown) VH: QVQLVQSGAEVKKPGSSVKVSCKASGGTFSSYAISWVRQAPGQGLEWMGGIIPIFGTANYAHKFQGRVTITADESTSTAYMELSSLRSEDTAVYYCATRRGYSGYGAAYYFDYWGQGTLVTVSS VL: QSVLTQPPSVSGAPGQRVTISCTGSSSNIGAGYDVHWYQQLPGTAPKLLIYGNSNRPSGVPDRFSGSKSGTSASLAITGLQAEDEADYYCQSYDSSLSGSLFGGGTKLTVL	< 0.5	
ABU-344 (antibody, V domains shown) VH: QVQLVQSGAEVKKPGSSVKVSCKASGGTFSSYTISWVRQAPGQGLEWMGRIIPILGIANYAQKFQGRVTITADKSTSTAYMELSSLRSEDTAVYYCARERGYSGSGSLYYFDYWGQGTLVTVSS VL: QSVLTQPPSVSGAPGQRVTISCTGSNSNIGAGYDVHWYQQLPGTAPKLLIYVNTNRPSGVPDRFSGSKSGTSASLAITGLQAEDEAHYYCQSYDSSLSGSVFGGGTKLTVL	< 1	
ABU-208 (antibody, V domains shown) VH: QVQLVESGGGVVQPGRSLRLSCVASGFTFSNYDMHWVRQAPGKGLEWVTVISSDGNNRRYADSVKGRFTISRDNSKNMLYLQMNSLKAEDTAVYYCARDEVIAVATGEGMDVWGQGTTVTVSP VL: EIVMTQSPAILSVSPGERATLSCRASQSVTRNLAWYQQKPGQAPRLLIYGASTRATNIPARFSGSGFGTEFTLIISSLQSEDFAVYYCQQYSNWPLYTFGQGTKLEIK	< 0.5	< 1
ABU-296 (antibody, V domains shown) VH: EVQLLESGGGVVQPGGSLRLSCAASGFTFTTYAMNWVRQAPGRGLEWVSAISDSGGSAYYADSVKGRFTISRDNSKNTLYLQMNSLRAEDTAVYYCAKTRGRGLYDYVWGSKDYWGQGTLVTVSS VL: not shown	< 0.1	< 1
ABU-297 (antibody, V domains shown) VH: EVQLLESGGGVVQPGGSLRLSCAASGFAFTTYAMNWVRQAPGRGLEWVSAISDGGGSAYYADSVKGRFTISRDNSKNTLYLQMNSLRAEDTAVYYCAKTRGRGLYDYVWGSKDYWGQGTLVTVSS VL: not shown	< 0.1	< 1
ABU-354 (antibody, V domains shown) VH: EVQLVESGGGLIQPGGSLRLSCAASGLIVSSNYMSWVRQAPGKGLEWVSVLYAGGSTDYAGSVKGRFTISRDNSKNTLYLQMNSLRAEDTAVYYCARDAAVYGIDVWGQGTTVTVSS VL: not shown	< 0.1	< 1
ABU-349 (antibody, V domains shown) VH: EVQLVESGGGLIQPGGSLRLSCAASGFTVSRNYMSWVRQAPGKGLEWVSLIYSGGSTFYADSVKGRFTISRDNSKNTLYLQMNTLRSEDTAVYYCARDLVVYGMDVWGQGTTVTVSS VL: DIQLTQSPSFLSASVGDRVTITCRASQGISSYLAWYQQKPGKAPKLLIYAASTLQVGVPSRFSGSGSGTEFTLTISSLQPEDFATYFCQQLNSYPFTFGPGTKVDIK	< 0.1	< 1
ABU-355 (antibody, V domains shown) VH: EVQLVESGGGLVQPGGSLRLSCAASGITVRSNYMSWVRQAPGKGLEWVSVIYSGGSTFYADSVKGRFTISRDNSKNTLYLQMNSLRAEDTAVYYCARDLISRGMDVWGQGTTVTVSS VL: DIQLTQSPSSLSASVGDRVTITCRASQGISSYLAWYQQKPGKAPKLLIYAASTLQSGVPSRFSGSGSGTDFTLTISSLQPEDFATYYCQQLNGYPHSAFGPGTKVDIK	< 0.1	< 1
ABU-358 (antibody, V domains shown) VH: EVQLVESGGGLIQPGGSLRLSCAASGLTVSSNYMNWVRQAPGKGLEWVSVIYSGGSTYYADSVKGRFTISRDNSKNMVYLQMNSLRAEDTAVYYCARDLVVYGMDVWGQGTTVIVSS VL: DIQLTQSPSSLSASVGDRVTITCRASQGISSYLAWYQQKPGKAPKLLIYAASTLQSGVPSRFSGSGSGTDFTLTISSLQPEDVATYYCQQLNSNPPITFGPGTKVDIK	< 0.1	< 10
ABU-352 (antibody, V domains shown) VH: EVQLVESGGGLIQPGGSLRLSCAASGLTVSSNYMTWVRQAPGKGLEWVSVIYSGGSTFYADSVKGRFTISRHNSKNTLYLQMNSLRAEDTAVYYCARDAMSYGMDVWGQGTTVTVSS VL: DIQMTQSPSSLSASVGDRVTITCRASQSISNFLNWYQQKPGKAPKLLIYAASSLQSGVPSRFSGSGSGTGFTLTISSLQPEDFATYYCQQSYSTPPDTFGQGTRLEIK	< 0.1	< 10
ABU-351 (antibody, V domains shown) VH: EVQLVESGGGLVQPGGSLRLSCAASGFTVSRNYMSWVRQAPGKGLEWVSVIYSGGTTHYADSVKGRFTISRHNSKNTLYLQMNSLRAEDTAVYYCARDLVVYGMDVWGQGTTVTVSS VL: DIQLTQSPSFLSASVGDRVTITCRASQGISSYLAWYQQKPGKAPKLLIYAASTLQSGVPSSFSGSGSGTEFTLTISSLQPEDFATYYCQQLNSYPLTFGGGTKVEIK	< 0.1	< 10
ABU-356 (antibody, V domains shown) VH: EVQLVESGGGLIQPGGSLRLSCAASGFTVSSNYMNWVRQAPGKGLEWVSVIYSGGSTFYADSVKGRFTISRDNSKNTLYLQMNSLRAEDTAVYYCARDRVVYGMDVWGQGTTVTVSS VL: DIQMTQSPSSLSASVGDRVTITCQASQDIINYLNWYQQKPGKAPKLLIYGASNLETGVPSRFSGGGSGTDFTFTISSLQPEDIATYYCHQYDNLPPTFGQGTRLEIK	< 0.1	< 10
ABU-371 (antibody, V domains shown) VH: EVQLVESGGGLVQPGGSLRLSCAASGIIVSSNYMSWVRQAPGKGLEWVSVIYSGGSTYYADSVKGRFTISRDNSKNTLYLQMNSLRAEDTAVYYCARDLDYYGMDVWGQGTTVTVSS VL: DIQLTQSPSFLSASVGDRVTITCRASQGISSYLAWYQQKPGKAPKLLIYAASTLQSGVPSRFSGSGSGTEFTLTISSLQPEDFATYYCQQLNSYPPFTFGPGTKVDIK	< 1	< 20
ABU-357 (antibody, V domains shown) VH: EVQLVESGGGLVQPGGSLRLSCAASGVTVSSNYMSWVRQAPGKGLEWVSVIYSGGSTNYADSVKGRFTISRDNSKNTLYLQMNSLRAEDTAVYYCARDLVSYGMDVWGQGTTVTVSS VL: not shown	< 1	< 10
ABU-290 (antibody, V domains shown) VH: QVQLVQSGAEVKKPGASVKVSCKASGFTFGRHGITWVRQAPGQGLEWMGWISTYSGNTNYAQNLQGRVTMTTDTSTNTAYMELRSLFFDDTAVYYCAKAVSGWPIYFDAWGQGTLVTVSS VL: EIVMTQSPATLSVSPGERVTLSCRASQSINRNLAWYQQKPGQAPRLLVYDASTRAPGIPTRVSGSGSGTDFTLTISSLQSEDFAVYYCQQYNNWPPITFGQGTRLEIQ	< 0.1	
ABU-291 (antibody, V domains shown) VH: QIQLVQSGAEVKKPGASVRVSCKASGFTFGRYGITWVRQVPGQGLEWMGWISTYSGNTNYAQNLQGRVTMTTDTSTNTAYMELRSLFFDDTAMYYCAKAVSGWPIYFDAWGQGTLVTVSS VL: EIVMTQSPATLSVSPGERVTLSCRASQSVNRNLAWYQQKPGQAPRLLVYDASTRAPGIPTRVRGSGSGTDFTLTISSLQSEDFAVYYCQQYNNWPPITFGQGTRLEIQ	< 0.5	
ABU-257 (antibody, V domains shown) VH: EVQLVESGGGLIQPGGSLRLSCAASGFTVSSNYMSWVRQAPGKGLEWVSVIYSGGSTYYADSVKGRFTISRDNSKNTLYLQMNSLRAEDTAVYYCARVTRAGAAGDGGAFDIWGQGTMVTVSS VL: QSALTQPASVSGSPGQSITISCTGTSSDVGSYNLVSWYQQHPGKAPKLMIYEVSKRPSGVSNRFSGSKSGNTASLTISGLQAEDEADYYCCSYAGSSLWVFGGGTKLTVL	< 0.5	< 10
ABU-340 (antibody, V domains shown) VH: EVQLVESGGGLVQPGGSLRLSCAASGFTVSSNYMNWVRQAPGKGLEWVSVIYSGGSTYYADSVKGRFTLSRDNSKNTLYLQMNSLRAEDTAVYYCARGQYDILTGYQYGAFDIWGQGTMVTVSS VL: QSALTQPASVSGSPGQSITISCTGTSSDVGTYNLVSWYQQHPGKAPKLMIYEVSKRPSGVSNRFSGSKSGNTASLTISGLQAEDEADYYCCTYAGSSTWVFGGGTKLTVL	< 0.5	< 10
ABU-359 (antibody, V domains shown) VH: EVQLVESGGGLVQPGGSLRLSCAASGFIVSSNYMTWVRQAPGKGLEWVSVIYSGGSTFYADSVKGRFTISRHNSKNTLFLQMNSLRAEDTAVYYCARDAQNYGMDVWGQGTTVTVSS VL: DIQMTQSPSSLSASVGDRVTITCRASQSISSYLNWYQQKPGKAPKLLIFAASSLQTGAPSRFSGSGSGTDFTLTISSLQPEDFATYYCQQSYSTPPYTFGQGTKLEIK	< 0.1	< 10
